Data from patent CN113150156A (ZHEJIANG BORUI BIOPHARMACEUTICAL CO LTD, dated 2021).
One block for each molecule: values may come before it.

Experiments:
[1] = molecular target: T1, 生物素标记的TIGIT (Acrobiosystems, TIT-H82E5) (UniProt Q495A1); experiment: competition ELISA, control IgG, inhibition of biotinylated TIGIT binding to coated CD155
T1 sequence (biotin-labelled (生物素标记), site not stated, looked up): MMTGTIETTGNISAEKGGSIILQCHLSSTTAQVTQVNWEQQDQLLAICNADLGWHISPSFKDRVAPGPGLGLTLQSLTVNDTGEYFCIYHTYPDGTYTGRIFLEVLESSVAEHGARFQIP

[2] = molecular target: T2, TIGIT on 293T-TIGIT cells (UniProt Q495A1 22-244); experiment: flow cytometry on 293T-TIGIT cells, FITC goat anti-mouse IgG detection
T2 construct: whole, on cells; also called 细胞膜上TIGIT; 293T-TIGIT细胞
T2 sequence (looked up): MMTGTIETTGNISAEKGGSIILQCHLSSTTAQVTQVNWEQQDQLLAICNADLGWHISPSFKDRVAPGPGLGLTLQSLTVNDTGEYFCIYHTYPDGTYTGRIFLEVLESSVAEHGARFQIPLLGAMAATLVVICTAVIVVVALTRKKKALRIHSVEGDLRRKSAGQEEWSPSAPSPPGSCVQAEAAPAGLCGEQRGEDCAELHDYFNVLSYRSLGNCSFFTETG

[3] = molecular target: T3, 生物素标记的TIGIT (Acrobiosystems, TIT-H82E5) (UniProt Q495A1 22-141, biotin-labelled (生物素标记), site not stated); experiment: competition ELISA, blocking of biotinylated TIGIT binding to coated CD112
T3 sequence (looked up): T1 sequence (biotin-labelled (生物素标记), site not stated, looked up)

[4] = molecular target: T3, 生物素标记的TIGIT (Acrobiosystems, TIT-H82E5); experiment: competition ELISA, blocking of biotinylated TIGIT binding to coated CD155
[5] = molecular target: T4, 人TIGIT蛋白 (Acrobiosystems, TIT-H52H3) (human, UniProt Q495A1 22-141); experiment: ELISA, human TIGIT protein coated at 0.5 μg/ml, goat anti-mouse IgG detection
T4 construct: Bought recombinant protein coated on ELISA plates
T4 sequence (looked up): T1 sequence (biotin-labelled (生物素标记), site not stated, looked up)

抑制率(%) [1]: 1.68%
Molecule: IgG1 (antibody)

EC50 [2]: 11.3 pM | IC50 [3]: 3970 pM | IC50 [4]: 804 pM | EC50 [5]: 108 pM
B1: 7D3 (antibody, V domains shown)
VH: EVQLQQSGPELVKPGASVKMSCKASGYTFTSYVMHWVKQKPGQGLEWIGYINPYNDGTKYNEKFKGKATLTSDKSSSTAYMELSSLTSEDSAVYYCARRGNGPLRVFAYWGQGTTVTVSS
VL: DIVMTQTPKFMSTSVGDRVSITCKASQDVSTAVAWYQQKPGQSPKLLIYSASYRYTGVPDRFTGSGSGTDFTFTISSVQAEGLAVYYCQQHYSTPPTFGAGTKLEIK
notes: Mouse monoclonal antibody from a hybridoma (BALB/c x SP2/0); also called 鼠源抗体; 鼠源抗TIGIT抗体7D3
